According to patent publication US7863432B2, “Nucleic acid molecules encoding AKAP18 delta, a splice variant of a protein kinase A anchor protein” (Forschungsverbund Berlin e.V., priority 2002, dated 2011):

Molecular target: T1, interaction between AKAP18δ and RIIα (Homo sapiens, UniProt P13861)
T1 construct: expressed in transfected cells; host or cells: HEK293
Test: FRET measurement of AKAP18δ-CFP / RIIα-YFP interaction in co-transfected HEK293 cells
Type: cell-based
Conditions: 100 μM
Method: The interaction of the expressed fusion proteins AKAP18δ-CFP and RIIα-YFP was measured in the HEK293 cells using the fluorescence resonance energy transfer (FRET) technology (schematic diagram in FIG. 3). The FRET signals result from an energy transfer from CFP to YFP, which is only possible when the two proteins are in close proximity to each other (<10 nm). Such close proximity of CFP and YFP is achieved only when AKAP186 directly binds the RIIα subunit. In this event, a FRET can be detected. […] A continuous decrease of the FRET signal during measurement indicates inhibition of the interaction between AKAP18δ and RIIα.
HEK293 cells (GBF, Brunswick) were cultured on polylysine-coated 30 mm cover glasses with 10% fetal calf serum (FCS) in Dulbecco's Minimal Eagle medium (DMEM) until a confluence of 40-60% was reached. […]
HEK293 cells were transiently co-transfected with the plasmids encoding RIIα-YFP and AKAP18δ-CFP. […] Fluorescence was excited at a wavelength of 425 nm for CFP and 488 nm for YFP. The emitted fluorescence was measured at a wavelength of 480/30 nm for CFP and 535/26 nm for YFP. The FRET of CFP to YFP was determined by excitation of CFP at a wavelength of 425 nm and measurement of the emission of YFP at a wavelength of 535/26 nm. Non-specific background fluorescence was determined in a region with no cells and subtracted. […]

T1 sequence (P13861 whole entry): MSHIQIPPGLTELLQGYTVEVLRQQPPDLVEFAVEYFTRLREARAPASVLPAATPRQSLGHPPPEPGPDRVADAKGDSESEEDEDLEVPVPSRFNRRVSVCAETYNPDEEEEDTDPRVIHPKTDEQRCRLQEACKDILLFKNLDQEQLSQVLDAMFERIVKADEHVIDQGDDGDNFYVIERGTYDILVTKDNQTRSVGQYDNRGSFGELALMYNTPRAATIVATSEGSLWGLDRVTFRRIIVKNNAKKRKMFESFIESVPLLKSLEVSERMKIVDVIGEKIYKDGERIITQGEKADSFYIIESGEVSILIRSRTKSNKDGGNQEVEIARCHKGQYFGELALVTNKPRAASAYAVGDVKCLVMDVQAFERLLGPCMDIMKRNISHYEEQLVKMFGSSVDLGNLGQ

Substance: S-Ht31: membrane-permeable peptide; sequence of the RII binding domain of AKAP Ht31, coupled to a stearate residue on the N terminus
- mean value of the 535/480 ratio after addition of peptide (HEK293 cells, ratio >0.6 taken as positive FRET signal): about 0.35
- decrease of the 535/480 nm ratio (FRET signal) (within 80 min, HEK293 cells co-expressing AKAP18δ-CFP and RIIα-YFP, ratio before addition about 1.3): more than 50%
